Where a chain is given by its changes, count along the chain named.
Assays:
Assay in all cases: flow cytometry on cells
[1] = target: T1, C-terminally truncated Ste2p S95Y (Saccharomyces cerevisiae, UniProt D6VTK4 1-303, S95Y)
T1 sequence (looked up): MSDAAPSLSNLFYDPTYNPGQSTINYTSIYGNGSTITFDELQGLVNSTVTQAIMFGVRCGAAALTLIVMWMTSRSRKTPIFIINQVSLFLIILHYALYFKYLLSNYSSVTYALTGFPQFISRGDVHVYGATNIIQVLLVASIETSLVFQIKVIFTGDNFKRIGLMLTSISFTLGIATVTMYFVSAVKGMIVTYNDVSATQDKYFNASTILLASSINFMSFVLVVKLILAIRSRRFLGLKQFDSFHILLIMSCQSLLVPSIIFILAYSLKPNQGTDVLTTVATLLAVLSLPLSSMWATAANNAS

[2] = target: T2, C-terminally truncated Ste2p V49D (Saccharomyces cerevisiae, UniProt D6VTK4 1-303, V49D)
T2 sequence (looked up): T1 sequence (looked up) with V49D, Y95S

[3] = target: T3, full-length Ste2p S104Y (Saccharomyces cerevisiae, UniProt D6VTK4 1-431, S104Y)
T3 sequence (looked up): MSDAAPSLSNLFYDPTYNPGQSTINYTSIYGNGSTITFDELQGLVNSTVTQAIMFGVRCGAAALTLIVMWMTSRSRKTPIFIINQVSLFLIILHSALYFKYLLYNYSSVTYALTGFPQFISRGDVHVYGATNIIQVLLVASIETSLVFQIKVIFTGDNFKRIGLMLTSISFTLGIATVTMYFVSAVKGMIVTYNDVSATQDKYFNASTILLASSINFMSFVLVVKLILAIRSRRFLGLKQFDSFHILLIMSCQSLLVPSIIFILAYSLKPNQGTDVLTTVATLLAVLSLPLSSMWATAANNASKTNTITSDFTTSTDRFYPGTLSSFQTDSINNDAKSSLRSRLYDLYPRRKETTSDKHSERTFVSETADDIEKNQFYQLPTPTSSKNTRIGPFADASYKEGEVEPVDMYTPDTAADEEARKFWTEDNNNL

[4] = target: T4, C-terminally truncated Ste2p H94Y (Saccharomyces cerevisiae, UniProt D6VTK4 1-303, H94Y)
T4 sequence (looked up): T1 sequence (looked up) with H94Y, Y95S

[5] = target: T5, C-terminally truncated wild-type Ste2p (Saccharomyces cerevisiae, UniProt D6VTK4 1-303)
T5 sequence (looked up): T1 sequence (looked up) with Y95S

[6] = target: T6, C-terminally truncated Ste2p S104Y (Saccharomyces cerevisiae, UniProt D6VTK4 1-303, S104Y)
T6 sequence (looked up): T1 sequence (looked up) with Y95S, S104Y

B1: [K^7(NBD),Nle^12] α-factor (peptide)
chain: WHWLQLKPGQPMY
modifications: NBD (7-nitrobenz-2-oxa-1,3-diazol-4-yl) conjugated to the lysine at position 7; norleucine at position 12 in place of methionine
Kd [1]: 8.1 ± 7.5 nM
Kd [2]: 23 ± 3.3 nM
Kd [3]: 2 ± 0.7 nM
Kd [4]: 47 ± 8.1 nM
Kd [5]: 19 ± 3.8 nM
Kd [6]: 12 ± 3.4 nM

Reference: article PMC4405178 (Biochemistry, 2015)
